Experimental data taken from patent US20220168438A1 (Daiichi Sankyo, published 2022).
Changes are numbered by the printed parent chain.

T1: human CLDN3 (human, UniProt O15551 1-220)
T1 construct: whole, on cells
T1 sequence (looked up): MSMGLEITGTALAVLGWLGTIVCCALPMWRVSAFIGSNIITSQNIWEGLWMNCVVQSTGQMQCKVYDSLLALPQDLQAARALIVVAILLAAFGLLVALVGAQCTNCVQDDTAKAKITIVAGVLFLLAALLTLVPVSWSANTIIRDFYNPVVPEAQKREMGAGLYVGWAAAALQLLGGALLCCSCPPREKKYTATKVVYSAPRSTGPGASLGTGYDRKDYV

T2: human CLDN4 (human, UniProt O14493 1-209)
T2 construct: whole, on cells
T2 sequence (looked up): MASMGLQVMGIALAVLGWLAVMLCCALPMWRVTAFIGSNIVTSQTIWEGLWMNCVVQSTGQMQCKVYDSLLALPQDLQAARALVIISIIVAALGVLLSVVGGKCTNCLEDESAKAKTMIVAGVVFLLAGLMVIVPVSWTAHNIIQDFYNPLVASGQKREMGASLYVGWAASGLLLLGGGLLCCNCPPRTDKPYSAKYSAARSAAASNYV

T3: human CLDN6 (human, UniProt P56747 1-220)
T3 construct: Four-transmembrane protein; It was expressed on 293T cells from human CLDN6/pCMV-Entry (OriGene) and on CHO-K1 cells by cDNA transfection; it was endogenous in the NTERA-2 lysate used for immunoprecipitation; also called claudin-6; human claudin-6
T3 sequence: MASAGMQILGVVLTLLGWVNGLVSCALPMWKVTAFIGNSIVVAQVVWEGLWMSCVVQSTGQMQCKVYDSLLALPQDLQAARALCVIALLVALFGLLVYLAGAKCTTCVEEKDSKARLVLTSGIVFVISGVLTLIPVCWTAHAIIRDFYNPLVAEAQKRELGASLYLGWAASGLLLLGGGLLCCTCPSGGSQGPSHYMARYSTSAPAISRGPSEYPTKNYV

T4: human CLDN9 (human, UniProt O95484 1-217)
T4 construct: Expressed on 293T cells from human CLDN9/pCMV6-Entry (OriGene); Transfection was confirmed with an anti-FLAG antibody
T4 sequence: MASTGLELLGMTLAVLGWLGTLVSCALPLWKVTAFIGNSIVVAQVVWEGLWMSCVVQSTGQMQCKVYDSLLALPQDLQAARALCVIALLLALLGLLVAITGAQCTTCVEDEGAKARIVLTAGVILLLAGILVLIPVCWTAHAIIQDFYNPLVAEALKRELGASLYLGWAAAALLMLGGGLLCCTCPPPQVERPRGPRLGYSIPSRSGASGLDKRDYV

B1: mouse anti-CLDN6 antibody B1 (antibody, V domains shown)
VH: EVQLQQSGPELVKPGASVKISCKTSGYTFTEYTMHWVQQSHGKSLEWIGGVNPNSGDTSYNQKFKGKATLTVDKSSSTAYMELRSLTSEDSAVYYCARPGGYDVGYYAMDYWGQGTSVTVSS
VL: DIQMTQTASSLSASLGDRVTISCRASQDINNYLNWYQQKPDGTVKLLIYFTSRLHSGVPSRFSGSGSGTHYSLTITNLEQEDIATYFCQQGYPLPWTFGGGTKLEIK
notes: Mouse monoclonal antibody purified from hybridoma 218B1 culture supernatant; also called B1 antibody; 218B1
B2: mouse anti-CLDN6 antibody C7 (antibody, V domains shown)
VH: B1 VH
VL: B1 VL with F50S, N77H
notes: Mouse monoclonal antibody purified from hybridoma 218C7 culture supernatant; also called C7 antibody; 218C7
B3: humanized anti-CLDN6 antibody H1L3 (antibody, human IgG1, kappa, L234A L235A, V domains shown)
VH: QVQLVQSGAEVKKPGASVKVSCKASGYTFTEYTMHWVRQAPGQGLEWMGGVNPNSGDTSYAQKFQGRVTITADTSTSTAYMELSSLRSEDTAVYYCARPGGYDVGYYAMDYWGQGTLVTVSS
VL: DIQMTQSPSSLSASVGDRVTITCRASQDINNYLNWYQQKPGGAVKLLIYFTSRLHSGVPSRFSGSGSGTDYTLTISSLQPEDFATYYCQQGYPLPWTFGGGTKVEIKR
notes: Human IgG1 LALA heavy chain and human kappa light chain; also called H1L3 antibody; hH1 + hL3
B4: humanized anti-CLDN6 antibody H2L4 (antibody, human IgG1, kappa, L234A L235A, V domains shown)
VH: B3 VH with Q1E, A24T, Q43K, G44S
VL: B3 VL with Y92N, P93T
notes: Human IgG1 LALA heavy chain and human kappa light chain; also called H2L4 antibody; hH2 + hL4
B5: humanized anti-CLDN6 antibody H3L3 (antibody, human IgG1, kappa, L234A L235A, V domains shown)
VH: B3 VH with Q1E, A24T, I70L, A72V, T74K
VL: B3 VL
notes: Human IgG1 LALA heavy chain and human kappa light chain; also called H3L3 antibody; hH3 + hL3
B6: humanized anti-CLDN6 antibody H2L2 (antibody, human IgG1, kappa, L234A L235A, V domains shown)
VH: B3 VH with Q1E, A24T, Q43K, G44S
VL: B3 VL with G42K, D70H, G100Q
notes: Human IgG1 LALA heavy chain and human kappa light chain; also called H2L2 antibody; hH2 + hL2
B7: humanized anti-CLDN6 antibody H1L1 (antibody, human IgG1, kappa, L234A L235A, V domains shown)
VH: B3 VH
VL: B3 VL with G42K, V44P, G100Q
notes: Human IgG1 LALA heavy chain and human kappa light chain; also called H1L1 antibody; hH1 + hL1

Each binder was assayed against T1, human CLDN3 (assay: flow cytometry on transiently transfected 293T cells).
Method: (§1) Binding activity of the mouse anti-CLDN6 antibodies produced in Example 6 to human CLDN6 and its family molecules, CLDN3, CLDN4, and CLDN9, was evaluated by using a flow cytometry method. Human CLDN3/pCMV6-Entry, human CLDN4/pCMV6-Entry, human CLDN6/pCMV-Entry, human CLDN9/pCMV6-Entry, or pCMV6-Entry purchased from OriGene Technologies, Inc. was transiently transferred into 293T cells (Thermo Fisher Scientific, HCL4517) by using Lipofectamine 2000 (Thermo Fisher Scientific), and the cells were cultured under conditions of 37° C. and 5% CO₂ overnight, and then a cell suspension was prepared. The transfected 293T cell suspension was centrifuged to remove the supernatant, and a mouse anti-CLDN6 antibody (clone number: B1 or C7) or a mouse IgG1 control antibody (R&D Systems, Inc.) was then added and suspended to a final concentration of 30 μg/mL, 10 μg/mL, 3.3 μg/mL, or 1.1 μg/mL, and the resultant was left to stand at 4° C. for 1 hour. The cells were washed twice with Dulbecco's phosphate buffered saline (Sigma-Aldrich Co. LLC) containing 5% fetal bovine serum (Hyclone) (hereinafter, referred to as 5% FBS-containing PBS), and FLUORESCEIN-CONJUGATED GOAT IGG FRACTION TO MOUSE IGG (WHOLE MOLECULE) (MP Biomedicals, Inc.) 500-fold diluted with 5% FBS-containing PBS was then added thereto, and the cells were suspended and left to stand at 4° C. for 1 hour. After washing twice with 5% FBS-containing PBS, detection was carried out by using a flow cytometer (FC500; Beckman Coulter, Inc.). Data analysis was carried out by using FlowJo (Tree Star, Inc.). To confirm each transfection, the cells were permeabilized with 0.25% Tween 20-containing PBS, and then a mouse anti-FLAG antibody (Sigma-Aldrich Co. LLC) was used. […] In each graph in FIG. 11, the ordinate represents FITC fluorescence intensity indicating the amount of the binding antibody and the abscissa represents antibody concentrations.
(§2) The binding activity of the humanized anti-CLDN6 antibody produced in Example 10 to human CLDN6 and its family molecules, CLDN3, CLDN4, and CLDN9, was evaluated by using a flow cytometry method.

Row | binding result | Binder
1 | no binding (tested: 100 nM) | B3
2 | no binding (tested: 100 nM) | B4
3 | no binding (tested: 100 nM) | B5
4 | no binding (tested: 100 nM) | B6
5 | no binding (tested: 100 nM) | B7

Row | Binder | binding result
6 | B1 | no binding (tested: 30 µg/mL (highest concentration tested))
7 | B2 | no binding (tested: 30 µg/mL (highest concentration tested))

These binders were tested against T2, human CLDN4 in the same assay as above.
Method: as §1, §2

Row | binding result | Binder
8 | no binding (tested: 100 nM) | B3
9 | no binding (tested: 100 nM) | B4
10 | no binding (tested: 100 nM) | B5
11 | no binding (tested: 100 nM) | B6
12 | no binding (tested: 100 nM) | B7

Row | Binder | binding result
13 | B1 | no binding (tested: 30 µg/mL (highest concentration tested))
14 | B2 | no binding (tested: 30 µg/mL (highest concentration tested))

The binders below were run against T3, human CLDN6 (assay: FACS on CHO-K1 cells transfected with human claudin-6 cDNA).

Row | binding result | Binder
15 | binds | B2

What follows are binders tested against T3, human CLDN6 (assay: flow cytometry on transiently transfected 293T cells, 0.8-100 nM).
Method: (§3) The binding activity of the humanized anti-CLDN6 antibody produced in Example 10 to human CLDN6 and its family molecules, CLDN3, CLDN4, and CLDN9, was evaluated by using a flow cytometry method. Used were 293T cells transiently transfected in the same manner as in Example 7-1. To cells into which a human CLDN6 or human CLDN9 gene had been transferred, the humanized anti-CLDN6 antibody H1L1, H2L2, H1L3, H2L4, or H3L3, or a human IgG1 control antibody (Calbiochem) was added and suspended to a final concentration of 100 nM, 20 nM, 4 nM, or 0.8 nM, and the resultant was left to stand at 4° C. for 30 minutes. To cells into which a human CLDN3 or human CLDN4 gene, or an empty vector had been transferred, the humanized anti-CLDN6 antibody H1L1, H2L2, H1L3, H2L4, or H3L3 was added and suspended to a final concentration of 100 nM, and the resultant was left to stand at 4° C. for 30 minutes. The cells were washed with Dulbecco's phosphate buffered saline (Sigma-Aldrich Co. LLC) containing 5% fetal bovine serum (Hyclone) (hereinafter, referred to as 5% FBS-containing PBS), and FITC AffiniPureF (ab′)2 Fragment Goat Anti-Human IgG (H+L) (Jackson ImmunoResearch Laboratories Inc.) 150-fold diluted with 5% FBS-containing PBS was then added thereto, and the cells were suspended and left to stand at 4° C. for 30 minutes. After washing with 5% FBS-containing PBS, detection was carried out by using a flow cytometer (FC500; Beckman Coulter, Inc.). Data analysis was carried out by using FlowJo (Tree Star, Inc.), and mean fluorescence intensity (MFI) of FITC, which indicates the amount of the binding antibody, was calculated. […] In each graph in FIG. 13, the abscissa represents antibody concentrations and the ordinate represents MFI.

Row | binding result | Binder
16 | binds | B3
17 | binds | B4
18 | binds | B5
19 | binds | B6
20 | binds | B7

What follows are binders tested against T4, human CLDN9 in the same assay as above.
Method: as §3

Row | binding result | Binder
21 | binds | B3
22 | binds | B4
23 | binds | B5
24 | binds | B6
25 | binds | B7

What follows are binders tested against T4, human CLDN9 (assay: flow cytometry on transiently transfected 293T cells, 1.1-30 µg/mL).
Method: Binding activity of the mouse anti-CLDN6 antibodies produced in Example 6 to human CLDN6 and its family molecules, CLDN3, CLDN4, and CLDN9, was evaluated by using a flow cytometry method. Human CLDN3/pCMV6-Entry, human CLDN4/pCMV6-Entry, human CLDN6/pCMV-Entry, human CLDN9/pCMV6-Entry, or pCMV6-Entry purchased from OriGene Technologies, Inc. was transiently transferred into 293T cells (Thermo Fisher Scientific, HCL4517) by using Lipofectamine 2000 (Thermo Fisher Scientific), and the cells were cultured under conditions of 37° C. and 5% CO₂ overnight, and then a cell suspension was prepared. The transfected 293T cell suspension was centrifuged to remove the supernatant, and a mouse anti-CLDN6 antibody (clone number: B1 or C7) or a mouse IgG1 control antibody (R&D Systems, Inc.) was then added and suspended to a final concentration of 30 μg/mL, 10 μg/mL, 3.3 μg/mL, or 1.1 μg/mL, and the resultant was left to stand at 4° C. for 1 hour. […] In each graph in FIG. 11, the ordinate represents FITC fluorescence intensity indicating the amount of the binding antibody and the abscissa represents antibody concentrations.

Row | binding result | Binder
26 | binds | B1
27 | binds | B2

The binders below were run against T3, human CLDN6 (assay: immunoprecipitation from NTERA-2 cell lysate with 218B1, SDS-PAGE, mass spectrometry of the 18 kDa band).
Method: 2×10⁷ NTERA-2 cells were collected and washed twice with PBS. The cells were collected by using a cell scraper, and centrifuged at 1500 rpm for 5 minutes. After the supernatant was removed, the cells were resuspended in 2 mL of the lysis buffer, and treated at 4° C. for 30 minutes. The resultant was centrifuged (13000 rpm, 20 minutes, 4° C.) to prepare a cell lysate. Protein G Sepharose/lysis buffer (50% slurry; 180 μL) was added to the cell lysate, and the resultant was rotated at 4° C. for 30 minutes and then centrifuged at 4° C. for 1 hour, and the supernatant was collected. The 218B1 antibody (about 9 μg) was added to the supernatant, and the resultant was rotated at 4° C. for 30 minutes, to which Protein G Sepharose/lysis buffer (50% slurry; 180 μL) was then added, and the resultant was rotated at 4° C. for 1 hour. The Protein G Sepharose was washed six times with the lysis buffer (1 mL), and then resuspended in 1×SDS sample buffer. After the suspension was treated at 100° C. for 5 minutes, the solution was collected as a sample for SDS-PAGE. SDS-PAGE was carried out in the same manner as in 2-2), and the electrophoresis gel was stained with CBB. The part corresponding to 18 kDa was cut out of the electrophoresis gel, and subjected to mass spectrometry.

Row | binding result | Binder
28 | binds | B1
